Assay [1] has as its target T1, mouse CCR8 expressed on 293T cells (mouse, UniProt P56484 1-353).
T1 construct: whole, on cells
T1 sequence (looked up): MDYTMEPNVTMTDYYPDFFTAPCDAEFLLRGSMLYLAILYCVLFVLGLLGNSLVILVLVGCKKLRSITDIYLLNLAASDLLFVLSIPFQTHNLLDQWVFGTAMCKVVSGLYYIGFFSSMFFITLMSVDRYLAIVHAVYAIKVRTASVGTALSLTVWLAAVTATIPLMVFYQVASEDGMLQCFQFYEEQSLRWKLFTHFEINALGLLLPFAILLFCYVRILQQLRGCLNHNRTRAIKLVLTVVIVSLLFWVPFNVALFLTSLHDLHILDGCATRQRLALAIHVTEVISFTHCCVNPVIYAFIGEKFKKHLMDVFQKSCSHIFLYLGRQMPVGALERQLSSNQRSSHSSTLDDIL
The assay is described as follows: flow cytometry, mouseCCR8-293T cells, fold geomean over secondary alone. Background: Flow cytometry measures light scatter and fluorescence of single cells or particles in a stream.

In assay [2] the target is T2, Cynomolgus CCR8-ECD-Fc (cynomolgus monkey).
T2 construct: also called CyCCR8-ECD-Fc; Cynomolgus CCR8-Fc
T2 chain: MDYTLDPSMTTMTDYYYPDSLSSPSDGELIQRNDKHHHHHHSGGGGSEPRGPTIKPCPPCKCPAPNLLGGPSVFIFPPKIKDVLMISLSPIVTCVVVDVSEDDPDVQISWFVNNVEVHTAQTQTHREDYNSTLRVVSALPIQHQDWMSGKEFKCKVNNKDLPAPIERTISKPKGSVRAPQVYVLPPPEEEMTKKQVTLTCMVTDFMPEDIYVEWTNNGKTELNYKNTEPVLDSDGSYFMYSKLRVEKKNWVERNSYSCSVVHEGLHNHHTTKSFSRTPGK
The assay is described as follows: binding to CyCCR8-ECD-huFc protein (so in the source), OD45-570nm (so in the source).

The target in assay [3] is T3, Human CCR8-ECD-Fc (human).
T3 construct: also called HuCCR8-ECD-Fc; huCC8-ECD-Fc
T3 chain: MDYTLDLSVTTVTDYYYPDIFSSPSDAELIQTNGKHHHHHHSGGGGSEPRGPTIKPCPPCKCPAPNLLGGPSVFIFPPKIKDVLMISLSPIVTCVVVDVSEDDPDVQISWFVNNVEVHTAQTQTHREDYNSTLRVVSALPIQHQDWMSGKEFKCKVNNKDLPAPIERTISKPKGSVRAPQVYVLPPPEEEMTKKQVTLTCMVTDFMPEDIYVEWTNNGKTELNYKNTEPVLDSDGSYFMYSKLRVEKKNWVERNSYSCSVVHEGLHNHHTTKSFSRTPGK
The assay is described as follows: binding to HuCCR8-ECD-moFc protein (so in the source), OD45-570nm (so in the source).

The target in assay [4] is T4, human CCR8 (C-C chemokine receptor type 8) expressed on cells (human, UniProt P51685 1-355).
T4 construct: also called HuCCR8
T4 sequence (P51685 whole entry): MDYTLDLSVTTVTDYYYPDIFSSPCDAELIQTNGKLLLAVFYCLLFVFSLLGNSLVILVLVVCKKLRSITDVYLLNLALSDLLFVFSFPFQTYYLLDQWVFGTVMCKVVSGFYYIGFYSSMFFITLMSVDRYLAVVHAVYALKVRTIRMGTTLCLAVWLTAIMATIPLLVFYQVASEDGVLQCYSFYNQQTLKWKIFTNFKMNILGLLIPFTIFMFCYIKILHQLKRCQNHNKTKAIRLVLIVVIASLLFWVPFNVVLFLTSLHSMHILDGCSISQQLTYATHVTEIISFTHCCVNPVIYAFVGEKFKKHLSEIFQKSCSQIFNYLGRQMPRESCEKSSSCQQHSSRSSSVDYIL
The assay is described as follows: on-cell affinity, flow cytometry on 293T cells expressing human CCR8.

For assay [5], the target named is T5, cynomolgus monkey CCR8 expressed on cells (cynomolgus monkey, UniProt G7NYJ2 1-355).
T5 construct: whole, on cells; also called cyno CCR8; CyCCR8
T5 sequence (G7NYJ2 entry or part of it): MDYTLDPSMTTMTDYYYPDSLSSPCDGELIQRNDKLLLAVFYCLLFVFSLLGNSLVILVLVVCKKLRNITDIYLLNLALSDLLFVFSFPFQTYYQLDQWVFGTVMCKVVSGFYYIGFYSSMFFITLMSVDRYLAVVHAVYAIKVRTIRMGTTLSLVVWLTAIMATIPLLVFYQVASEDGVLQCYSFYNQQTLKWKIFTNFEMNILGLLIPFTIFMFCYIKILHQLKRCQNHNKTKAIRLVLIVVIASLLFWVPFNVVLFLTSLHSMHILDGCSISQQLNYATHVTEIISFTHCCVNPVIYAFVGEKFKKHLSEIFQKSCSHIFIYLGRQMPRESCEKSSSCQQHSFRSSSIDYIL
The assay is described as follows: on-cell affinity, flow cytometry on 293T cells expressing cyno CCR8.

Assay [6] has as its target T1, mouse CCR8 expressed on 293T cells. The assay is described as follows: flow cytometry, mouseCCR8-293T cells, fold geomean over secondary alone. The source holds these as a separate data set.
Assay [7] deals with T2, Cynomolgus CCR8-ECD-Fc. The assay is described as follows: binding to CyCCR8-ECD-huFc protein (so in the source), OD45-570nm (so in the source).
The target of assay [8] is T3, Human CCR8-ECD-Fc. The assay is described as follows: binding to HuCCR8-ECD-moFc protein (so in the source), OD45-570nm (so in the source).

Read-outs that look alike come from different tables or passages of the source.

B1: anti-CCR8-1-2 (antibody, V domains shown)
VH: QVQLVQSGAEVKKPGASVKVSCKASGYTFTSYYMHWVRQAPGQGLEWMGIINPSGGSTSYAQKFQGRVTMTRDTSTSTVYMELSSLRSEDTAVYYCARGVGNGFRFDYWGQGTLVT
VL: QSALTQPASVSGSPGQSITISCTGTSGDVGSYSLVSWYQHHPSRAPKLIIYEVNKRPSGVSDRFSGSKSGNTASLTITGLQAEDEAHYFCSSYTGNINLPVVFGGGTKLTVL
notes: Parental-1 heavy chain with a shuffled lambda light chain; Human IgG expressed in CHO cells
For orientation: Kd means the free concentration of one partner at which half of the binding sites on the other are occupied at equilibrium, for simple one-to-one binding. Regarding B1, the binding result is on record as “no binding (tested: 10 ug/ml)” in assay [1], “binds” with Cynomolgus CCR8-ECD-Fc [2] and “binds” with Human CCR8-ECD-Fc [3]. This molecule displayed a Kd in assay [4] of 1.06 nM.

B2: anti-CCR8-1-1 (antibody, V domains shown)
VH: QVQLVQSGAEVKKPGASVKVSCKASGYTFTSYYMHWVRQAPGQGLEWMGIINPSGGSTSYAQKFQGRVTMTRDTSTSTVYMELSSLRSEDTAVYYCARGVGNGFRFDYWGQGTLVT
VL: QSALTQPPSVSGSPGQSITISCTGTSSDVGTYNLVSWYQQHPGNAPKLMIYEVTKRPSGVSNRFSGSKSGNTATLTISGLQAEDEADYHCSSYAGSITHVVFGGGTKLTVL
notes: Parental-1 heavy chain with a shuffled lambda light chain; Expressed from a mammalian expression vector in CHO cells as human IgG
For B2, the dissociation constant (Kd) in assay [5] turned out to be 22.1 nM; in assay [4], 1.01 nM. The values for the binding result (in assay [6]; with Cynomolgus CCR8-ECD-Fc [7]; in the assay with Human CCR8-ECD-Fc [8]) were “no binding (tested: 10 ug/ml)”, “binds” and “binds”, respectively.

The values above are taken from patent US20210238292A1 (VACCINEX, published 2021).
